Test results taken from patent US20230104540A1 (NEURACLE SCIENCE, published 2023).

Experiments:
FAM19A1 mutant M6 = FAM19A1 mutant M6 (Mus musculus (Mouse), UniProt Q7TPG8 20-133); assay: ELISA on plate-coated mutant, anti-hKappa-HRP detection
Fam19A1-M3 = assay: ELISA on coated FAM19A1 protein (500 ng), one antibody amount, anti-hKappa-HRP (Example 4)
[1] = molecular target: Wild-type FAM19A1 (Table 10) (Mus musculus (Mouse), UniProt Q7TPG8 20-133); assay: as above
Fam19A1-M4 = assay: as above
Fam19A1-M5 = assay: as above
Fam19A1-M2 = assay: as above
Fam19A1-M1 = assay: as above
Fam19A1-M7 = assay: as above
[2] = molecular target: T1, FAM19A1 protein (ELISA of Example 3) (Homo sapiens (Human), UniProt Q7Z5A9 20-133); assay: ELISA, IgG titrated from 0 to 100 nM on FAM19A1 protein (Example 3); Kd row of the table under the graph, R square 0.9527, the concentration axis reads Cons (nM); fitted curve levels off at A450 about 2.8, last point at 100 nM about 3.1
AITR-Fc = molecular target: T2, AITR-Fc (UniProt Q9Y5U5 26-161, limits assumed); assay: mono scFv-phage ELISA on coated antigen, single point (Example 2)
T2 construct: also called AIRTR
T2 sequence (looked up): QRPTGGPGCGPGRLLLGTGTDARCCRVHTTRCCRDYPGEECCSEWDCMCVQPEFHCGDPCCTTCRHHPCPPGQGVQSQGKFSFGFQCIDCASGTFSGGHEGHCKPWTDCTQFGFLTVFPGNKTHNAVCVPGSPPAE

CD58-Fc = molecular target: T3, CD58-Fc (UniProt P19256 29-215, limits assumed); assay: as above
T3 construct: Control antigen
T3 sequence (looked up): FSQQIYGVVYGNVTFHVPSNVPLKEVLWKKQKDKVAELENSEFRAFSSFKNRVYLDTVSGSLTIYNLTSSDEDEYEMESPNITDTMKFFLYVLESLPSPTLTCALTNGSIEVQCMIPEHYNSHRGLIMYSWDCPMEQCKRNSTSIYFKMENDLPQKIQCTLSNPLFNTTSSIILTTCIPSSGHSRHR

hRAGE-Fc = molecular target: T4, hRAGE-Fc (human (by the label hRAGE), UniProt Q15109 23-344, limits assumed); assay: as above
T4 construct: Control antigen
T4 sequence (Q15109 23-344 limits assumed): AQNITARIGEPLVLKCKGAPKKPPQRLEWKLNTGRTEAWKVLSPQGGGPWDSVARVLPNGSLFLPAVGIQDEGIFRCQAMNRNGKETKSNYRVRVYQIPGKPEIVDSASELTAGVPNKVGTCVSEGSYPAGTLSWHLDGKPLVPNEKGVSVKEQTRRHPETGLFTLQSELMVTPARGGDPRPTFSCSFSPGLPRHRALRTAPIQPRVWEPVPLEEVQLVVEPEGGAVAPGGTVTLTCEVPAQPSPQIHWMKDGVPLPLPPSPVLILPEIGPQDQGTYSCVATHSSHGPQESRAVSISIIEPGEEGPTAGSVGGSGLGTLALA

[3] = molecular target: T1, FAM19A1 protein (ELISA of Example 3); assay: ELISA, IgG titrated from 0 to 100 nM on FAM19A1 protein (Example 3); Kd row of the table under the graph, R square 0.9168, the concentration axis reads Cons (nM); the curve is faint and not told apart from that of 1A11
[4] = molecular target: T1, FAM19A1 protein (ELISA of Example 3); assay: ELISA, IgG titrated from 0 to 100 nM on FAM19A1 protein (Example 3); Kd row of the table under the graph, R square 0.9106, the concentration axis reads Cons (nM); fitted curve levels off low, at A450 about 0.75

B1: anti-FAM19A1 IgG1 antibody clone 1C1 (antibody, V domains shown)
VH: QVQLVESGGGVAQPGRSLRLSCAASGFAFSDYGIHWVRQAPGKGLEWVALISYDGSKRSYADSVKGRFAISRDNSKNTLYLQMNSLRAEDTAVYYCARPGDYALAFDLWGQGTMVTVSS
VL: QTVVTQEPSFSVSPGETVTLTCGLSSGSVSTSHFPSWYRQTPGQAPRPLIDSRNARSIGVPDRFSGSIVGTKATLTISGAQAEDECNYYCALYMGRGNWVFGGGTKLTVL
notes: also called A1-1C1; FAM19A1-1C1
FAM19A1 mutant M6
  binding result: no binding
Fam19A1-M3
  binding result: binds
[1]
  binding result: binds
Fam19A1-M4
  binding result: binds
Fam19A1-M5
  binding result: binds
Fam19A1-M2
  binding result: binds
Fam19A1-M1
  binding result: binds
Fam19A1-M7
  binding result: binds
[2]
  Kd: 1.13 nM

B2: Anti-FAM19A1 1C1 mono scFv-phage clone (scFv, V domains shown)
VH: QVQLVESGGGVAQPGRSLRLSCAASGFAFSDYGIHWVRQAPGKGLEWVALISYDGSKRSYADSVKGRFAISRDNSKNTLYLQMNSLRAEDTAVYYCARPGDYALAFDLWGQGTMVTVSS
VL: QTVVTQEPSFSVSPGETVTLTCGLSSGSVSTSHFPSWYRQTPGQAPRPLIDSRNARSIGVPDRFSGSIVGTKATLTISGAQAEDECNYYCALYMGRGNWVFGGGTKLTVL
AITR-Fc
  binding result: no binding
CD58-Fc
  binding result: no binding
hRAGE-Fc
  binding result: no binding

B3: anti-FAM19A1-1A11 (antibody, V domains shown)
VH: QVQLVESGAEVRKPGASVKVSCKASGYSFTGYDINWVRQAPGQGLEWMGWMNPSSGNTGYAQKFQGRVTMTRDSSISTAYMELSSLRSEDTAVYYCARALNSVYYYHALDVWGQGTTITVSS
VL: SYELTQPPSASVSPGQTASITCSGDRLHNKYTSWYQQKPGQSPLLVIYQDAKRPSGIPERFSGSSSRGTATLTISGTQATDEADYYCQTWDRSTGVFGTGTKVTVL
notes: also called anti-FAM19A1 IgG1 antibody clone 1A11; A1-1A11-Ybio
Fam19A1-M2
  binding result: binds
Fam19A1-M1
  binding result: binds

B4: Anti-FAM19A1 1A11 mono scFv-phage clone (scFv, V domains shown)
VH: QVQLVESGAEVRKPGASVKVSCKASGYSFTGYDINWVRQAPGQGLEWMGWMNPSSGNTGYAQKFQGRVTMTRDSSISTAYMELSSLRSEDTAVYYCARALNSVYYYHALDVWGQGTTITVSS
VL: SYELTQPPSASVSPGQTASITCSGDRLHNKYTSWYQQKPGQSPLLVIYQDAKRPSGIPERFSGSSSRGTATLTISGTQATDEADYYCQTWDRSTGVFGTGTKVTVL
AITR-Fc
  binding result: no binding
CD58-Fc
  binding result: no binding
hRAGE-Fc
  binding result: no binding

B5: anti-FAM19A1-3A8 (antibody, V domains shown)
VH: QVQLQQSGPGLVKPSETLSLICSVSGDAITSGSYYWGWIRQSPGRGLEWIGEISHSGSTDYNPSLKSRVTISVDKSRNQFSLRLNSVTAVDTAVYYCAGDTALVGAYSIWGQGTMVTVSS
VL: SYELTQAPSLSVSPGQTANIICSGDNLRTKYVSWYQQKPGQSPLLVIYQDTRRPSGIPARFSGSNSGNTATLTISGTQTRDESTYYCMTWDVDTTSMIFGGGTKLTVL
notes: also called anti-FAM19A1 IgG1 antibody clone 3A8
[3]
  Kd: 56 nM

B6: Anti-FAM19A1 3A8 mono scFv-phage clone (scFv, V domains shown)
VH: QVQLQQSGPGLVKPSETLSLICSVSGDAITSGSYYWGWIRQSPGRGLEWIGEISHSGSTDYNPSLKSRVTISVDKSRNQFSLRLNSVTAVDTAVYYCAGDTALVGAYSIWGQGTMVTVSS
VL: SYELTQAPSLSVSPGQTANIICSGDNLRTKYVSWYQQKPGQSPLLVIYQDTRRPSGIPARFSGSNSGNTATLTISGTQTRDESTYYCMTWDVDTTSMIFGGGTKLTVL
AITR-Fc
  binding result: no binding
CD58-Fc
  binding result: no binding
hRAGE-Fc
  binding result: no binding

B7: anti-FAM19A1-2G7 (antibody, V domains shown)
VH: QVQLVESGGGLVKPGRSLSLSCTTSGFPFGDHAINWVRQAPGKGLEWVGFIRSNTYGGTTQYAASVEGRFTISRDDSKSIAYLQMNSLRAEDTAVYYCTKDITGGGFWSDYGDYFDAFDFWGQGTMVTVSS
VL: SYELTQPLSVSVSPGQTASISCSGDKLGYKYASWYQQKPGQSPVVVIYQDKKRPSGIPERFSGSNSGNTATLTISGTQPMDEADYYCQAWDSGTASHVFGTGTKVTVL
notes: also called anti-FAM19A1 IgG1 antibody clone 2G7
[4]
  Kd: 1.89 nM

B8: Anti-FAM19A1 2G7 mono scFv-phage clone (scFv, V domains shown)
VH: QVQLVESGGGLVKPGRSLSLSCTTSGFPFGDHAINWVRQAPGKGLEWVGFIRSNTYGGTTQYAASVEGRFTISRDDSKSIAYLQMNSLRAEDTAVYYCTKDITGGGFWSDYGDYFDAFDFWGQGTMVTVSS
VL: SYELTQPLSVSVSPGQTASISCSGDKLGYKYASWYQQKPGQSPVVVIYQDKKRPSGIPERFSGSNSGNTATLTISGTQPMDEADYYCQAWDSGTASHVFGTGTKVTVL
AITR-Fc
  binding result: no binding
CD58-Fc
  binding result: no binding
hRAGE-Fc
  binding result: no binding
